# Assay results published in IntAct's records for PubMed 16000308.
# B1: Melanoma-associated antigen D1 (Homo sapiens), Q9Y5V3 (parent)
# chain: MAQKMDCGAGLLGFQAEASVEDSALLMQTLMEAIQISEAPPTNQATAAASPQSSQPPTANEMADIQVSAAAARPKSAFKVQNATTKGPNGVYDFSQAHNAKDVPNTQPKAAFKSQNATPKGPNAAYDFSQAATTGELAANKSEMAFKAQNATTKVGPNATYNFSQSLNANDLANSRPKTPFKAWNDTTKAPTADTQTQNVNQAKMATSQADIETDPGISEPDGATAQTSADGSQAQNLESRTIIRGKRTRKINNLNVEENSSGDQRRAPLAAGTWRSAPVPVTTQNPPGAPPNVLWQTPLAWQNPSGWQNQTARQTPPARQSPPARQTPPAWQNPVAWQNPVIWPNPVIWQNPVIWPNPIVWPGPVVWPNPLAWQNPPGWQTPPGWQTPPGWQGPPDWQGPPDWPLPPDWPLPPDWPLPTDWPLPPDWIPADWPIPPDWQNLRPSPNLRPSPNSRASQNPGAAQPRDVALLQERANKLVKYLMLKDYTKVPIKRSEMLRDIIREYTDVYPEIIERACFVLEKKFGIQLKEIDKEEHLYILISTPESLAGILGTTKDTPKLGLLLVILGVIFMNGNRASEAVLWEALRKMGLRPGVRHPLLGDLRKLLTYEFVKQKYLDYRRVPNSNPPEYEFLWGLRSYHETSKMKVLRFIAEVQKRDPRDWTAQFMEAADEALDALDAAAAEAEARAEARTRMGIGDEAVSGPWSWDDIEFELLTWDEEGDFGDPWSRIPFTFWARYHQNARSRFPQTFAGPIIGPGGTASANFAANFGAIGFFWVE
# partner: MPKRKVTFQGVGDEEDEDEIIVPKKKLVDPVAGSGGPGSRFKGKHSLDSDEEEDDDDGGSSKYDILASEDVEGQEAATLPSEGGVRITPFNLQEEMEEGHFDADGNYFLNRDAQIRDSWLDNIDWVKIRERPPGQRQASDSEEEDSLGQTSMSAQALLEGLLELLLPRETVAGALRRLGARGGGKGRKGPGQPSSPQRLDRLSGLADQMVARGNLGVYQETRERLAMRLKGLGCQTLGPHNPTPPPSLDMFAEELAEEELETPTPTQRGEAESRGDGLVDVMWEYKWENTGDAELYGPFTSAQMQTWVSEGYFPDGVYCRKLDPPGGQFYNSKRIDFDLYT
# Variants of: B1
# Conditions: with cd2b2_human CD2BP2, O95400
row,Variant,effect of a mutation on the interaction
1,W380E,disrupting interaction strength
2,W380A,decreasing interaction strength
3,W380D,decreasing interaction strength
4,W386P,decreasing interaction strength
5,W386V,disrupting interaction strength
6,W386N,disrupting interaction strength
7,W386H,disrupting interaction strength
8,W386K,decreasing interaction strength
9,W386I,decreasing interaction strength
10,W386A,disrupting interaction strength
11,W386E,disrupting interaction strength
12,W386C,disrupting interaction strength
13,W386T,disrupting interaction strength
14,W386G,disrupting interaction strength
15,W386M,decreasing interaction strength
16,W386D,disrupting interaction strength
17,W386S,decreasing interaction strength
18,G379D,decreasing interaction strength
19,G379C,decreasing interaction strength
20,G379A,decreasing interaction strength
21,G379W,decreasing interaction strength
22,G379E,decreasing interaction strength
23,G385H,disrupting interaction strength
24,G385Y,disrupting interaction strength
25,G385E,disrupting interaction strength
26,G385N,disrupting interaction strength
27,G385L,disrupting interaction strength

row,Variant,effect of a mutation on the interaction
1,G385K,disrupting interaction strength
2,G385I,disrupting interaction strength
3,G385S,disrupting interaction strength
4,G385A,disrupting interaction strength
5,G385P,decreasing interaction strength
6,G385R,decreasing interaction strength
7,G385Q,disrupting interaction strength
8,G385C,disrupting interaction strength
9,G385W,disrupting interaction strength
10,G385D,disrupting interaction strength
11,G385F,disrupting interaction strength
12,G385T,disrupting interaction strength
13,G385M,disrupting interaction strength
14,T382E,disrupting interaction strength
15,T382N,decreasing interaction strength
16,T382L,disrupting interaction strength
17,T382D,disrupting interaction strength
18,T382M,decreasing interaction strength
19,T382C,disrupting interaction strength
20,P383D,disrupting interaction strength
21,P383W,disrupting interaction strength
22,P383Y,disrupting interaction strength
23,P383H,disrupting interaction strength
24,P383Q,disrupting interaction strength
25,P383A,disrupting interaction strength
26,P383I,disrupting interaction strength
27,P383L,disrupting interaction strength

row,Variant,effect of a mutation on the interaction
1,P383S,disrupting interaction strength
2,P383M,disrupting interaction strength
3,P383F,disrupting interaction strength
4,P383V,disrupting interaction strength
5,P383E,disrupting interaction strength
6,P383T,disrupting interaction strength
7,P383R,disrupting interaction strength
8,P383K,disrupting interaction strength
9,P383G,disrupting interaction strength
10,P383C,disrupting interaction strength
11,P383N,disrupting interaction strength
12,Q387D,disrupting interaction strength
13,Q387W,disrupting interaction strength
14,Q387Y,disrupting interaction strength
15,Q387A,decreasing interaction strength
16,Q387C,disrupting interaction strength
17,Q387E,disrupting interaction strength
18,P378H,decreasing interaction strength
19,P378E,decreasing interaction strength
20,P378W,decreasing interaction strength
21,P378A,decreasing interaction strength
22,P378M,decreasing interaction strength
23,P378D,decreasing interaction strength
24,P378C,decreasing interaction strength
25,P378G,decreasing interaction strength
26,P384K,disrupting interaction strength
27,P384L,disrupting interaction strength

row,Variant,effect of a mutation on the interaction
1,P384C,disrupting interaction strength
2,P384W,disrupting interaction strength
3,P384S,disrupting interaction strength
4,P384V,disrupting interaction strength
5,P384Y,disrupting interaction strength
6,P384F,disrupting interaction strength
7,P384G,disrupting interaction strength
8,P384I,disrupting interaction strength
9,P384M,disrupting interaction strength
10,P384A,disrupting interaction strength
11,P384T,disrupting interaction strength
12,P384D,disrupting interaction strength
13,P384Q,disrupting interaction strength
14,P384R,disrupting interaction strength
15,P384E,disrupting interaction strength
16,P384N,disrupting interaction strength
17,P384H,disrupting interaction strength
18,Q381D,decreasing interaction strength
19,Q381E,decreasing interaction strength
20,Q381Y,decreasing interaction strength
21,Q381C,decreasing interaction strength
22,T388D,decreasing interaction strength
23,T388E,decreasing interaction strength
24,T388C,decreasing interaction strength
